# Laboratory results published in the domain aggregation screens of Martell et al. (2025).
# Assay: soluble fraction after stress (log2 fold change); higher = more stays soluble; pooled small domains, quantitative proteomics
# Conditions: stress: pH 4
# Summary of the method: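 Aggregation propensity here comes from the fold change in the soluble amount of each small protein domain after acid stress, measured in pooled custom libraries by high-throughput quantitative proteomics. The acid stress was pH 4. On the log2 scale, higher values mean more of the domain stayed soluble.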
row,Sequence,soluble fraction (log2)
1,HMDSVEYRVITGDDVNFRKGPSTDYASLGKLNKGYKVEYISETNSWSKVKYNGQTGYVYSKYVAQT,-0.262
2,HMDSVTVPDISGYSPKAAEDSINNAGLKINEQGLSGSGDGQVVERTSPSAGSKVKKGDSVTVYYSKA,0.104
3,HMDTDVFLMDLRGESRDYAEEVLINNNLEVKVIILPFSKRHYPGKVVEMRPSPFTKVKKGRIITLSVAGN,-1.11
4,HMDTDWDVSGVTPDQYRLLFSVLGGLAGVKDVGLNPDGLRIIHTPEALPSIEKAFQANGLKLKRNVD,-0.899
5,HMDTETLIDKYQLNASEAAVLRFMDKNRDSLRDLGIRDVARASYVSTATIVNMAKKIGYSGYSELVFAYGS,-0.545
6,HMDTFSVAIGTKTPDGSSVGEVKTISRDELLLLEDEVAEDPTKEIIFTGGTKDSAQAALDGWIDYNTNLAS,-0.716
7,HMDTFYKNLSKKIKTIREKLSFSQEALAKELGISRVAISQIENGDRKISAEEIAKLSRVFNVPTDILLN,0.131
8,HMDTHDVQVPQEGQGLRLDLFLTDHIEGSRSFIQTIIKDGHVILNGKKAKANSRLNEGDYVVWSIPKPE,-0.37
9,HMDTHRLNYSDFVAEVQAQRVSKVVIDGYTIVGQRTNGETFETVRPALQDPKLVDDLLQNNVIIEGKQPE,-0.143
10,HMDTIVHFLSDGRRITVRIKRNARKNIILRPMAADAVSATIPPWLGRRQLSAWLSEREDLLLSVLSRAA,-0.736
11,HMDTLESYVKRLEKLEGIADSFKGVSKAFALQAGREIRIMVESEKITDEEAVWLSKDIARRIENELEYPG,-0.468
12,HMDTNKMLIVNSISNGMKRLQELQDPQLAEIQKTFSGLDEQKATSAQLAQINNIINNRIAEIEG,0.191
13,HMDTNPKVIITMDGVNVRSSASTGSDILFIAEKGEEYELISESGDFYKILYEGNKEGYVASWLVETSE,-0.022
14,HMDTNVKLLSPKQADFFASKLANNQNFSSKFAKVGEDMQPFIERISSELQQDISQVIVYMPYLLESGFKQ,-0.126
15,HMDTNVPVPNVNGMTLNQAKAALEAAGFHVAVNWLGEKSDNNSVISYEPNGSAAKGTTITITVIAQPEQDG,-0.507
16,HMDTPPGLSPEEQAIIDIITTRGDATINELTASIDIPTPRLMGMLVDMEFRSLIAAIPGGRYRI,-1.42
17,HMDTRQFWEQWVADEIRTFEHKDRKQLFGWFEGNKPKLGQMKKLGYGDLLTKVQTSWDEIYQQKE,0.29
18,HMDTRSSARKALDAVNLLLETYGAKAYQHSYEIAGRRQQFQTPGDFMAFRSRLMAEVATEENAARINA,≥ 0.43
19,HMDTSKIDYSEFITMLDKGEVESVVLKSDTLTVTLKHGTGMAAQTKTVTLMEDLSELTKRLEKAGVKSFDK,0.176
20,HMDTVIAEVTASILNLRRSAGTSSDIIGKLNKGEKVSIIGGSGNWKNVRTSGGITGWVYHEYLSTY,-0.183
21,HMDTYDSIDSILEERHLSRRKLAQAIGLPPSTFQSMMSRKSGMTLEVLMKIVSYLQVSPDAFW,0.061
22,HMDVAWDAIKAKLKEVVDAEDKAHPLNDDQIVKALGESGITIARRTIAKYRDLLGIPPARKRKA,0.0412
23,HMDVIGLEAAKSAAVKDAGISSPTFTKATLDRDDGRSLYEIEFISGSTKYEYDIDALTGSVLSKKTRALS,≥ 0.43
24,HMDVKPWERQEGESAKAFEAFTIYAGLGADRSLRAVAQQLGKSKTLMDRWSSTYSWVARAAEYDADLQRK,≥ 0.43
25,HMDVLFGNRLRQLLDERNISQAHFADRIGVSRSRMNNYVAQRSEPDYATLIRIANTLDTSIDFLLGKS,-0.45

row,Sequence,soluble fraction (log2)
1,HMDVLIQEIGKRLRIQRLAMGLTQEELAKRAGISLSTLKLMEQQGKGSLQRLAKVAVVLDLDGDLRGLF,-1.01
2,HMDVLKVFSHNVRRYRTQLGLSQETVAFRTGLHRTYISAVERGKRSISLDNIQKIADALEVETYLLFI,0.22
3,HMDVLNPGDKAVTTASWLNFRTGPGMQNKVASVLARNTTVNIIEKSNEWYKVSLANGSTGYVHGMYLSKIT,0.105
4,HMDVLSQYGSRGEEVGKIQTRLKSWGYFSGEVTGYYGSQTTEAVKRFQQKHGLSATGVADRKTLELIGIS,0.22
5,HMDVLTARENEVLQLLAKGMSNKEIASVLVITEKTVKAHVSSILSKLNLSDRTQAALYAVKNGI,-0.154
6,HMDVNMLVTGMLHKGEKSFVRVSFLRGKDWAEGIVPDAKIEKSQGFMEEEVARLEAYLLEQKSMIMEQA,-1.24
7,HMDVQGFVMDLDKPLDKEPIVEGFELKLEDSLTLVAAVNKDKSINSLFDELSKLGIKVKSMRNPP,-2.11
8,HMDVQNLTKKNQEFINIVTHQLLQSGKSDEDIQTILAKTLPEIIEKQKQGIPARSFLGAPTAWAAQFI,-0.0313
9,HMDVRLAKVYMLPANPYLRFIEFDDGTHGKFRAKPGKFGLGSVVKVKREDGDMYTLEGNYDGKDRL,0.152
10,HMDVSPVRLIREARGLSQVEVAKAAGLSRAAYQNIEVGKTVPRASTMVNIARALGVSMDDLLAPV,0.0681
11,HMDVSVPDVTGTRLDRAQSLLEAQGLTLGKVEEFFHATEPAGIVYDQEPRPGTRVDEGTAISVSVSKGPEA,0.0997
12,HMDWFDELKVSTDDSGRVTAPEESEFMFQTSNEKIFAGGDMVRGSDLVVTAIWEGRQAAEGIMDYLD,-0.726
13,HMDWPDDETIARIYALIKSDISSQARKVMELRFSEGMPFARIAAAMGISETAVYRHLSHALTVIRQKLN,-1.24
14,HMDWREMTAWMAELLKRRTGDDVETWNARVRESGAHDEASLRAWLTEQGVTGYAQTLLVMERFGYPDFF,-1.67
15,HMDYADISYKIFMNHIKNGQVERVELSGDPRIMGKLKDGTYFVTDNPRTENFKEFLLLNNVQVIETN,-0.772
16,HMDYEVPEELQQKFEEFPRLKEAFYQLTPGRQHQYLYYFSQAKRSQTRYNRIDKYMNAILQGKGMK,0.167
17,HMDYINALTTAGITDAKVIVTAPFDVSGTAALTGIYKAYEDITGSSLNEIAKAVGVEELITTGNLA,0.2
18,HMDYKAELDNIIRDHLDMEGPLLPVLHAVMARFSYIPKDAIPIIARKLNLSSAEVSGVISFYHDFKKEK,-0.165
19,HMDYKYYIVKEPMVVKNLELPVGTRIVYFNTSLFGDSESSRPLKEKNIYQIFFPDDKPLIWGGVPVSLIER,-0.546
20,HMDYNLTKNQKIVFNLLQNSGEPLKAYTILESLKREGLKSPLQVYRALDKLVELGIIHKIESQNSFI,0.0373
21,HMDYNMEEWSLTADQLKSGDTILILNLGKTATLLESTRGKKNVRVRMGNIKTIVETSSIRGNPHQ,-0.729
22,HMDYPFQYFNYSHLRILGVPAQLIKAVRKAPTLDAIEQLSGLSEKTKLWLLELATEPKLEDVLFDPGR,-0.515
23,HMDYRSMSGLQKAALLIMSVGEETAAKLFQLMHDDEIREISQTMANLGTVNATVIERLFVEFADAISS,-0.935
24,HMDYVKTLGETINVRVAASTDADIYKLLPGGEILNRVGYNEEWTKVMVDGSTFYVYSEYVIQTEPPA,-1.25
25,HMDYYSILGVDRNATGEDIKKAFKKKAMKYHPDRNPDNKESERKFKEAKEAYDTLSNPQKKSMYDQFGT,0.141

row,Sequence,soluble fraction (log2)
1,HMEAEDLRDWVGARGIAYTALRPAGIAVVNGRRVDVVSEGAFVNRDDPVEVVRVEGRRIVVKP,-0.106
2,HMEAGTEYVERAADYIRSHFQEDLTVSKLALYVGLNRSYLTTVFQNTLHVSPQQFLMRFRMERAAQLLD,-0.302
3,HMEAGTVTVTHAAVYIRSGPGVSYPIAGKAAKNDTYTVLQKDGDWFQIRLPQGNTGWIAGWLVETGT,-0.133
4,HMEAISIYPNPTDNELHLSTSVQEVRIYNMYGIEVTRAANTDRLAVSHLPKGVYLVHADGAVLKMIK,-1.29
5,HMEAISSESIKKMIKSYVSGEDASKPLSDQQIADLLVKEGYMISRRTVAKYRDELGILSSSKRKR,≥ 0.43
6,HMEAKQMDAWIVSEAKRQGGKIEPAAAYELSRHTATDTSIASQEIAKLLMYVDFKRPVTREDVVELVSA,-0.0795
7,HMEALPELTDRQRQVYEFIEARIAEWGYPPTIREIGQHLGIKSTNGVADHLKALKRKGYLQQ,-0.804
8,HMEALTPREREVLTLMGQGRSNAEIATLLSIAPRTAKVHVQNILSKLGATNRTEAVSLAVRQGLIS,-0.18
9,HMEASVNAPMPGKIVSVSVSEGQQVNAGDVLLILEAMKMQNEITADAAGTVKAINVNAGQSVKNGDSLVIL,-0.586
10,HMEAVGLTPRQGDVLALLLQGKPNKLIARDLNLSVETVKDHVAAVLRALGVSTRTQAVLAVSQMQQQAAQ,-0.221
11,HMEAVLTISPGMYSESVSAELVRLGIITNQKEFNSYLVNNGYAERIQTGDFKIKADMSYDEIARIITK,-0.489
12,HMEAYDTMEDRTTLAPGFAKLDKRERYILHLRFFEGLTQSQIAERVGISQMHVSRLIRRSLEKLREEIGD,-0.4
13,HMEAYSAEAVRFRIKAMIESETVDDVMSDDKIVERLLADGVDIARRTVAKYREAMNIPSSVKRRRKLKGM,-0.962
14,HMEDDRMLVWFFRKSIQNGAQSEAEGRPIFEGKDYVHIQQPGERDYIEREAHQGDIGRWPRHWQAYQEGR,-0.359
15,HMEDEAVMQLPLSELKGLSPELLAILNGAGYEKLKDVLDLEREDIERIPGMTPERNEQLVAFLAELTE,-1.98
16,HMEDELFSVARAAFPEYASKIHMNYGSTVQSIARQSGVLTVSETKQLNENQQISYLEYSNGAVVLALA,-0.306
17,HMEDELVMERFDINELVKSVVNANELRATQKNLSITYDILDTPLYVWADEYKVEEVVTNYLS,-1.06
18,HMEDIASESVKRVIRKIIDDEDKKSPLSDQAIVEILAKGEGIVIARRTVAKYREMMGILPSSKRKKH,0.0959
19,HMEDKIEESLEDNISELFAKTKDKYTLINDLYSKGYTVEELSRFSGLPSGEVRLVISLNSKN,-0.183
20,HMEDKPITKEQKQAMFALLREHFSGDEGNAVYTAVLEREGLAPGDKIMSSVYDRLIDGINEAIRQKLEAGA,-0.133
21,HMEDNLMIVVQVNGKKRSEIKVSIDASEDQIKQTALAEPNVQKFVEGHTIRKMILVPSKLLNIVV,≥ 0.43
22,HMEDPKLAQLTEQERKILDLIADGLTNRQIAEKMFLAEKTVKNYVSTILAKMGMSNRSEAAAYVARLEAG,-0.292
23,HMEDPPISQEQRQALFKMAHDHLGKDEGNKAILTLIQSHGLNSTTGMKVSTYNTIMEELVSTIQSLAA,0.0682
24,HMEDPVAQEARAAFEVGRLLAAATGPVTLAAIRRAIDLPEERLEEILRRLEESGAVRRARDGWLPG,-0.269
25,HMEDVDLFTKAMAALPNRYRDILLLRYSHGYTVEEISDILSMKPENVKKTIQRARKKLGEILEAEG,-0.202
